The record followed here is PMC8537452.

The target of experiment [1] is long carboxyl terminus (CTL) of rat Cav1.3L (rat).
Experiment [2] shares this target. The source holds these as a separate data set.
Experiment [3] has the same target. The source holds these as a separate data set.

Sequence of long carboxyl terminus (CTL) of rat Cav1.3L (rat) (P27732 1460-2155): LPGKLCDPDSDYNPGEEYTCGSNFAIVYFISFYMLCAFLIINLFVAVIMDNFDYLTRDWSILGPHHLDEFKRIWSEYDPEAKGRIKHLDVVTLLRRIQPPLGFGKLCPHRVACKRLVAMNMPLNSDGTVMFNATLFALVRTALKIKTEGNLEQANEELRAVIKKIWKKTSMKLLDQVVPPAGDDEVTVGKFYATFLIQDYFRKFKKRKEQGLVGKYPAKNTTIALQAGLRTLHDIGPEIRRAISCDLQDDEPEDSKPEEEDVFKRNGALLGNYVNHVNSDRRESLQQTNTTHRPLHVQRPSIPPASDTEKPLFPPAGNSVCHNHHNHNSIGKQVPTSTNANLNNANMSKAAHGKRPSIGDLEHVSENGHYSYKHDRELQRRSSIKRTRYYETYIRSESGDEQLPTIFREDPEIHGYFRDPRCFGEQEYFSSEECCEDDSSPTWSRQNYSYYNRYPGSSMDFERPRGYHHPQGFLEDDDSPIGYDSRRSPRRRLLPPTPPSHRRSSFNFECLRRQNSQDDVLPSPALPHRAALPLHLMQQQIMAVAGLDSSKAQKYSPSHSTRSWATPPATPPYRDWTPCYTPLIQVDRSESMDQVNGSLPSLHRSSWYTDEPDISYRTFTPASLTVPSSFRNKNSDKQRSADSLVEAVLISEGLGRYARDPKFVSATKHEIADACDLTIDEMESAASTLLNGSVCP

Regarding rat Snapin2 (natural protein), the maximal chord conductance of Cav1.3L channels without vs. with Snapin2 in HEK-293 cells in experiment [1] worked out at 1.86 nS/pF. In experiment [2], the average peak current amplitude at −10 mV of Cav1.3L/β3 with vs. without Snapin2 in Xenopus oocytes was -2410 nA and the maximal chord conductance of Cav1.3L channels without vs. with Snapin2 in Xenopus oocytes was 28.1 μS.

B1: rat Snapin1 (natural protein)
chain: MAAAGSAAVSGAGTPVAGPTGRDLFAEGLLEFLRPAVQQLDSHVHAVRESQVELREQIDNLATELCRINEDQKVALDLDPYVKKLLNARRRVVLVNNILQNAQERLRRLNHSVAKETARRRAMLDSGVYPPGSPSK
For B1, the maximal normalized chord conductance of Cav1.3L without or with Snapin1 in HEK-293 cells in experiment [3] came out at 2.09 nS/pF.
